Source: the DeepSol protein solubility set

Experiment: soluble on expression in E. coli; label from the status in PepcDB or PDB records

Sequence	soluble on expression in E. coli
LIGDKNTTFVEKLNSLAADHQLPQIGFSTSSEPEWQFVKDLTEVDPEHVVKSYNRQAKYHLNKNKQFCIKLRKIGRDELPAFKRITQQTADRLHYHDKSLDFYETLFDTYGKKAKFIFAEINFKEYSESIEKDLNDIQKKLTEIAGADYHNISDLSDFSASAKRHLSEGIKTETALQKRLQEAKKMHQEAKHDIVLVSVALFVIENQEVVYLYSGSDEKYEHLFAPYEIQDTMITEAVKERIPLYNFYGVSGKFDGSDGVLGFKTHFNGYTREMVGSFDFPVQKTKYYFYRLFKKILHRQ	not soluble
LINETSRRLNQRLTLTDTMNDLAVRMAESFQAEEVGFFHIDHFENLTLLPGSTAFFKEAKPSDFYNELKEKLYEGEKGVFIGNGQSVFGKAGYGSLMAAPMIQNDRLLGFAVLLKQELYAFTFEMYKLFQALIHHATLAVTNSMLRDRLE	soluble
LKCSTVVCVICLEKPKYRCPACRVPYCSVVCFRKHKEQCNPET	soluble
LKKKVGIISLGCPKNLVDSEIMLGLLKKNDFEITSDSEEANVIIVNTCGFIESAKEESINTILEMANYKNKNCEMLIVAGCLAQRYKDEIIKEMPEVDAVVGVSGYDEIAKVIEEFYSKKNDKNDKEKAVFHKDTLSVEYLNNERLLSTNSGYAYLKISEGCDNRCTYCAIPYIRGPYRSRKMEDIISEAEFLAGKGVKEVILVAQDVTVYGKDLYGQKKLVELVREVSGIEGIEWIRLLYTYPEEIDEELIKEIANNEKVVKYLDIPIQHASDKILKLMGRRSTSEGIRNILDRLRAEVPDIVLRTSLIVGFPGEDEKDFKILYDFVRKYEFDRLGVFTYSREEGTPAYDLKPQIKKSVKESRRNDIMQLQKEIVQRKNESRLEKVYKTLVEGVSEDGIFYYGRTYAEAPDIDGSVYFTSAEPLKFGEFVNVKVLNIDDYDLIGEVINESSK	soluble
LLFLSRERGPSQSTPSLISSAAPTMIKMEVNGHGKAMALGEGPPLPAGVQVPAGPQTVMGPGLAPMLAPPPRRTPKQHNCQSCGKTFSSASALQIHERTHTGEKPFGCTICGRAFTTKGNLKVHMGTHMWNNAPARRG	soluble
LLSDYYHKRFGVDTRSVRFPGLISNVTLPGGGTTDYAVDIYYAAVKEGRFTCPIKEGTYMDMMYMPDALRACVELMEADPARLVHRNSFNITAMSFEPSQIAAAVKKLVPDFVMNYEVDPLRQGIAESWPNSLDDSCARSEWDWKPDYDLDSMSADMIQILKARYGK	not soluble
LQNKFKKYSKIPTGNGMTGRDVAIKMLQDNGIYDVQVTHTPGQLTDHYNPANKTVNLSEGVYDSNSIMAAAVAAHECGHAVQHARAYAPLTLRSK	not soluble
LRLWALTATECRLLLSTRWNVGRLYQLPVAASAEFASYQTQRDQLRQTFKNIASEILNPDDPRTDLPFHIALSVIEMRSNDGVVPEPLRDDE	not soluble
LTDIRKKAATTLEKQIKQELNQLYMEKAIFSVHFESDKTELTESGQDSVVFYMSTNPGEPLKPLAKIASGGELSRMMLALKTIFSRHQGITSIIFDEVDTGVSGRVGQAIAEKIYAVSVGSQVLCISHLPQVAAMANHHYYITKKVQNKRTTTSVTILKGEQKVEEISRMIAGIEVTELTKQHAKEMIQQAEKVKQTY	not soluble
LTELYDAIPASIIIIDERMRLIGWNRFSRDTINGLSDNEMPGINPMKRVHPDDLPEMIRKMRNVIDLDIELSAEFRMYHKSGPPYKWAMCRGKRTIIEGKTCVVAVVTEIT	not soluble
LTNRGLKQVGWYLPAAQKTKKTAIVVHGFTNDKEDMKPYAMLFHDLGYNVLMPDNEAHGESEGNLIGYGWNDRLNVMAWTDQLIKENPESQITLFGLSMGAATVMMASGERLPAQVTSLIEDCGYASVWDELKFQAKAMYNLPAFPLLYEVSALSKIRAGFSYGEASSVKQLAKNKRPTLFIHGDKDDFVPTKMVYDNYKATKGPKEILIVKGAKHAKSFETNPEQYQKKIAAFLKKVEK	not soluble
LTSSNALRGDAHSRLAAHRGLLERTSRTTRVAGILRDAIIDGTFRPGARLSEPDICAALDVSRNTVREAFQILIEDRLVAHELNRGVFVRVPTAEDITELYICRRVVECAGVNGFDPATGDLSRVAEALDLADERYAVEDWTGVGTADIHFHSALASLNNSNRIDELMRSVWNEARLVFHVMDDAHRFHGPYLTRNHEIYDALAAGNTEAAGQLLKTYLEDAEAQILGAYRPVSG	soluble
LTVSARDAPTKISTLAVKVHGGSRYATKDGVAHLLNRFNFQNTNTRSALKLVRESELLGGTFKSTLDREYITLKATFLKDDLPYYVNALADVLYKTAFKPHELTESVLPAARYDYAVAEQCPVKSAEDQLYAITFRKGLGNPLLYDGVERVSLQDIKDFADKVYTKENLEVSGENVVEADLKRFVDESLLSTLPAGKSLVSKSEPKFFLGEENRVRFIGDSVAAIGIPVNKASLAQYEVLANYLTSALSELSGLISSAKLDKFTDGGLFTLFVRDQDSAVVSSNIKKIVADLKKGKDLSPAINYTKLKNAVQNESVSSPIELNFDAVKDFKLGKFNYVAVGDVSNLPYLDEL	soluble
LVPRGSDSSRRQYQEKYKQVEQYMSFHKLPADFRQKIHDYYEHRYQGKMFDEDSILGELNGPLREEIVNFNNRKLVASMPLFANADPNFVTAMLTKLKFEVFQPGDYIIREGTIGKKMYFIQHGVVSVLTKGNKEMKLSDGSYFGEISLLTRGRRTASVRADTYSRLYSLSVDNFNEVLEEYPMMRRAFETVAIDRLDRIGKKN	soluble
LWGIFVEQADGHYRVRLRSKIHPINEIAKEHDGGGHPLASGANSYSLEENEIIY	soluble
MAAKRPPASTLKWCQQEMGPICEGIGMVVRSQIGYDGRRIEKQIRRKALQTVVMGGQDVDPLKEPNKTNAPLLSPTLPSTNEALQRARVVAAGIETFAKLMSQGTYPGSAGFTVSETGERKYMKQTSPVQSNIVANLMATADKLSKGVISLAPFPLPTITKLGTWVIANPTAQLPIPPQLKSAIPAIGQIETLIQSILGVQGPVSSVSRAPRKLKLEGVTDQVVLEPETIHATVDVEPIDKTLTKEEAEFLIKAARSVDDDNAETAIFGTQKAKPKVYRPELPKNFEVNLEMGNVHTLTRSNESSVPATRIGRLATFGQLAFGLLGGATAEVTRRTFGIGKRLQEEGIPKNPFLSEANADRIVATLCRVRGAALKLGQMLSIQDSSTVPPALLQIFERVRQSADFMPIKQVHRQMKDAFGDDWREKFEHFDDKPFACASIGQVHKAVLKDGRNVAVKVQYPGVAEGIDSDIDNLVSVLSVGGIFPKGMFLDAFVGVARRELKQECDYEREARAMKKFRELIADWQDVYVPEVIDELSSSRVLTTELVYGKPVDACVEEPQVVRDYIAGKFIELCLKEIFLWRFMQTDPNWSNFFLGKHPKTGEPRLVLLDFGASRAYGKKFVDIYMNIIKSAYDGDKKKIIEYSREIGFLTGYETSVMEDAHVESVMIMGETLASNHPYNFANQDVTMRIQKLIPVMLEHRLTSPPEEIYSLHRKLSGCYLLAAKLKATVSCGGLFHEIHENYVFGEDGIDINID	not soluble
MAAKWEKLEGNVGVLTIEVDAKEVNNSIDAAFKKVVKTINVPGFRKGKMPRPLFEQRFGIESLYQDALDIILPKAYGEAIDEAGIFPVAHPEIDIEKFEKNANLIFTAKVTVKPEVKLGEYKGLAVEKVETTVTDEDVENELKSLQERQAELVVKEEGTVENGDTAVIDFEGFVDGEAFEGGKGENYSLAIGSGTFIPGFEEQVIGLKSGESKDVEVSFPEEYHAAELAGKPATFKVTVHEIKTKELPELNDEFAKEADEAVATLDELKAKLRTNLEEGKKHEAEHKVRDEVVELAAANAEIDIPEAMIDTELDRMVREFEQRLSQQGMNLELYYQFTGTDADKLKEQMKEDAQKRVRINLVLEAIIEAENIEVTEEEVTAEVEKMAEMYGMPVDAIKQALGSVDALAEDLKVRKAVDFLVENAA	not soluble
MAALIDTGIFFGFYSLKDVHHMDSVAIVVHAVEGKWGRLFVTNHILDETLTLLKYKKLPADKFLEGFVESGVLNIIYTDDEVERKALEVFKARVYEKGFSYTDAISEVVAEELKLKLISYDSRFSLPTIGRDYWKSLDESERKRISAILREKGIDG	soluble
MAALMTPGTGAPPAPGDFSGEGSQGLPDPSPEPKQLPELIRMKRDGGRLSEADIRGFVAAVVNGSAQGAQIGAMLMAIRLRGMDLEETSVLTQALAQSGQQLEWPEAWRQQLVDKHSTGGVGDKVSLVLAPALAACGCKVPMISGRGLGHTGGTLDKLESIPGFNVIQSPEQMQVLLDQAGCCIVGQSEQLVPADGILYAARDVTATVDSLPLITASILSKKLVEGLSALVVDVKFGAGAVFPNQEQARELAKTLVGVGASLGLRVAAALTAMDKPLGRCVGHALEVEEALLCMDGAGPPDLRDLVTTLGGALLWLSGHAGTQAQGAARVAAALDDGSALGRFERMLAAQGVDPGLARALCSGSPAERRQLLPRAREQEELLAPADGTVELVRALPLALVLHELGAGRSRAGEPLRLGVGAELLVDVGQRLRRGTPWLRVHRDGPALSGPQSRALQEALVLSDRAPFAAPLPFAELVLPPQQ	soluble
MAALRYRRFLKLCEEWPVDETKRGRDLGAYLRQRVAQAFREGENTQIAEPEACDQMYESLARLHSNYYKHKYPRPRDTSFSGLSVEEYKLILSTDTLEEFQEMNKSMWKKLQEKFAPTRPEEKHKAWTRVLSRPRT	soluble
MAAQLDPSSEFAALVKQLQREPDNPGLKQAVVKRLPEMQLLAKTNSLALFRLAQVYSPSSSQHKQMILQSAAQGCTNAMLSACEILLKSGAANDLITAAHYMRLIQSSKDSYIIGLGKKLLEKYPDFAEELKSKEVPYQSTLRFFGVQSESNKENEEKIINRPTV	not soluble
MAASAAATAAASAATAASAASGSPGSGEGSAGGEKRPAASSAAAASAAASSPAGGGGEAQELLEHCGVCRERLRPERDPRLLPCLHSACSACLGPATPAAANNSGDGGSAGDGAMVDCPVCKQQCYSKDIVENYFMRDSGSKASSDSQDANQCCTSCEDNAPATSYCVECSEPLCETCVEAHQRVKYTKDHTVRSTGPAKTRDGERTVYCNVHKHEPLVLFCESCDTLTCRDCQLNAHKDHQYQFLEDAVRNQRKLLASLVKRLGDKHATLQKNTKEVRSSIRQVSDVQKRVQVDVKMAILQIMKELNKRGRVLVNDAQKVTEGQQERLERQHWTMTKIQKHQEHILRFASWALESDNNTALLLSKKLIYFQLHRALKMIVDPVEPHGEMKFQWDLNAWTKSAEAFGKIVAERPGTNSTGPGPMAPPRAPGPLSKQGSGSSQPMEVQEGYGFGSDDPYSSAEPHVSGMKRSRSGEGEVSGLLRKVPRVSLERLDLDLTSDSQPPVFKVFPGSTTEDYNLIVIERGAAAAAAGQAGTVPPGAPGAPPLPGMAIVKEEETEAAIGAPPAAPEGPETKPVLMPLTEGPGAEGPRLASPSGSTSSGLEVVAPEVTSAPVSGPGILDDSATICRVCQKPGDLVMCNQCEFCFHLDCHLPALQDVPGEEWSCSLCHVLPDLKEEDGSLSLDGADSTGVVAKLSPANQRKCERVLLALFCHEPCRPLHQLATDSTFSMEQPGGTLDLTLIRARLQEKLSPPYSSPQEFAQDVGRMFKQFNKLTEDKADVQSIIGLQRFFETRMNDAFGDTKFSAVLVEPPPLNLPSAGLSSQELSGPGDGP	soluble
